Patent US20230094083A1 (YEDA RESEARCH AND DEVELOPMENT, published 2023)

Key:
[1] = molecular target: human Grp94 on the cell surface (senescent IMR-90 human lung fibroblasts; IPF patient lung fibroblasts) (human) (UniProt P14625); test: cell-based or functional assay
[2] = molecular target: T1, human Grp94 on the cell surface (senescent IMR-90 human lung fibroblasts; IPF patient lung fibroblasts) (human, UniProt P14625 22-803); test: immunofluorescence on senescent human IMR-90 cells
T1 construct: whole, on cells; also called cell surface Grp94; Grp94 on the cell surface of senescent IMR-90 cells

[3] = molecular target: T2, mouse Grp94 on the cell surface (Meth A sarcoma cells; senescent primary mouse lung fibroblasts) (mouse, UniProt P08113 22-802); test: flow cytometry, neat hybridoma supernatant on Meth A sarcoma cells
T2 construct: whole, on cells; also called Grp94 expressed on the surface of Meth A cells
Experimental: (§1) Mouse Meth A sarcoma cells (Cat. 400284 CLS, Germany) were cultured using standard tissue culture conditions in RPMI-1640. Cells were seeded at 1×10⁵ in 100 microliter FACS buffer in 96 well U bottom FACS plates, pelleted and resuspended in 100 microliters neat or 1 in 2 diluted supernatant sample for 30 minutes at 4° C. Cells were washed twice with PBS and resuspended in 100 microliter secondary antibody, AF647 conjugated goat anti-mouse IgG A21236 (Thermo Fisher Scientific) at 2 micrograms/ml in FACS buffer for 30 minutes at 4° C. Cells were washed twice with PBS and resuspended in 100 microliters water containing 10% CellFix (Becton Dickinson, UK). Median fluorescence intensity was measured using an Attune NxT Acoustic Focusing Cytometer (Thermo Fisher Scientific) with autosampler using acquisition parameters optimized with unstained cells and secondary labeled cells: FSC:100, SSC:340, FL1:370. The acquisition rate was 100 microliter/minute stopping at 10,000 R1 events. Positive controls consisted of commercially sourced mouse anti-Grp94 antibodies MA1-10892 (Thermo Fisher Scientific) and MAB7606 (R&D System) at 2 micrograms/ml while negative control consisted of Meth A cells incubated with secondary antibody alone.

[4] = molecular target: T2, mouse Grp94 on the cell surface (Meth A …); test: ranking of clones by flow cytometry on Meth A sarcoma cells
[5] = molecular target: T2, mouse Grp94 on the cell surface (Meth A …); test: flow cytometry, senescent against proliferating primary mouse lung fibroblasts
[6] = molecular target: T2, mouse Grp94 on the cell surface (Meth A …); test: flow cytometry, hybridoma supernatant diluted 1:2 on Meth A sarcoma cells
Experimental: as §1

[7] = molecular target: T3, recombinant human Grp94 (Creative Biomart, USA) (human, UniProt P14625 22-803, limits assumed); test: Biacore single cycle kinetics, antibody captured, Grp94 as analyte
T3 construct: Bought recombinant protein; It served as immunogen, ELISA coat, Biacore analyte and the immobilised ligand in binning; also called rHGrp94; rhGrp94
Experimental: Biacore single cycle analysis was performed on supernatants where the monoclonal antibody was captured with Fc on the surface as the ligand and Grp94 flowed over as the analyte. Kinetic experiments were performed on a Biacore T200 running Biacore T200 Control software V2.0.1 and Evaluation software V3.0 (GE Healthcare, Sweden). All single cycle kinetic experiments were run at 25° C. with HBS-P+ running buffer (pH 7.4) (GE Healthcare, UK) containing 1 mg/ml BSA.
Antibodies were diluted in running buffer and at the start of each cycle were loaded onto Fc2, Fc3, and Fc4 of the CM5 chip coupled with an anti-mouse capture antibody using standard amine chemistry (GE Healthcare, UK). IgGs were captured at a flow rate of 10 microliter/minute to give an immobilization level (RL) of approximately 160RU. The surface was then allowed to stabilize. Single cycle kinetic data was obtained with Grp94 (Creative BioMart, USA) as the analyte at a flow rate of 30 microliter/min to minimize any potential mass transport limitations. […] The association phase for the three injections of increasing concentrations of Grp94 was monitored for 150 seconds each time and a single dissociation phase was measured for 900 seconds following the last injection of Grp94. […]

[8] = molecular target: T1, human Grp94 on the cell surface …; test: flow cytometry on senescent human IMR-90 cells
[9] = molecular target: T1, human Grp94 on the cell surface …; test: flow cytometry, senescent against proliferating human IMR-90 cells
[10] = molecular target: T2, mouse Grp94 on the cell surface (Meth A …); test: flow cytometry on senescent primary mouse lung fibroblasts

T2 sequence (P08113 22-802): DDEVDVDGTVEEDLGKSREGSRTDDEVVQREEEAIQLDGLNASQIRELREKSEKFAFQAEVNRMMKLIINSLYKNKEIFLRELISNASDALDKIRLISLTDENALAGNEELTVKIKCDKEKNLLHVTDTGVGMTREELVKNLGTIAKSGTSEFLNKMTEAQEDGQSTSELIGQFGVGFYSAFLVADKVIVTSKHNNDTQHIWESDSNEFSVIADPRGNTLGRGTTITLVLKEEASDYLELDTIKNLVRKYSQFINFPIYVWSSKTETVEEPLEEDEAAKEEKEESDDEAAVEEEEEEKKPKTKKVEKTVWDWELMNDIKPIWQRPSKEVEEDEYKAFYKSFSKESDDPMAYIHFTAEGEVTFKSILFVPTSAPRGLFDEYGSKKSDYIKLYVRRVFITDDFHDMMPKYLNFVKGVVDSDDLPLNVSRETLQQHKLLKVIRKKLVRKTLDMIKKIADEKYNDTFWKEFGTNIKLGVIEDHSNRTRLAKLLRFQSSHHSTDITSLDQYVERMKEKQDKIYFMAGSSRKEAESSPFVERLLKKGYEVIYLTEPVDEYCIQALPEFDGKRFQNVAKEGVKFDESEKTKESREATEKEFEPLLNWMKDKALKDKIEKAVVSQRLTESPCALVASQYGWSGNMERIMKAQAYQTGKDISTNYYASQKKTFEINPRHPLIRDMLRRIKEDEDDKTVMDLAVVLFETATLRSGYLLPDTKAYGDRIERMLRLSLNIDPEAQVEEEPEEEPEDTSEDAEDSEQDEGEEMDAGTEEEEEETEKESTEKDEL
T1 sequence (P14625 22-803): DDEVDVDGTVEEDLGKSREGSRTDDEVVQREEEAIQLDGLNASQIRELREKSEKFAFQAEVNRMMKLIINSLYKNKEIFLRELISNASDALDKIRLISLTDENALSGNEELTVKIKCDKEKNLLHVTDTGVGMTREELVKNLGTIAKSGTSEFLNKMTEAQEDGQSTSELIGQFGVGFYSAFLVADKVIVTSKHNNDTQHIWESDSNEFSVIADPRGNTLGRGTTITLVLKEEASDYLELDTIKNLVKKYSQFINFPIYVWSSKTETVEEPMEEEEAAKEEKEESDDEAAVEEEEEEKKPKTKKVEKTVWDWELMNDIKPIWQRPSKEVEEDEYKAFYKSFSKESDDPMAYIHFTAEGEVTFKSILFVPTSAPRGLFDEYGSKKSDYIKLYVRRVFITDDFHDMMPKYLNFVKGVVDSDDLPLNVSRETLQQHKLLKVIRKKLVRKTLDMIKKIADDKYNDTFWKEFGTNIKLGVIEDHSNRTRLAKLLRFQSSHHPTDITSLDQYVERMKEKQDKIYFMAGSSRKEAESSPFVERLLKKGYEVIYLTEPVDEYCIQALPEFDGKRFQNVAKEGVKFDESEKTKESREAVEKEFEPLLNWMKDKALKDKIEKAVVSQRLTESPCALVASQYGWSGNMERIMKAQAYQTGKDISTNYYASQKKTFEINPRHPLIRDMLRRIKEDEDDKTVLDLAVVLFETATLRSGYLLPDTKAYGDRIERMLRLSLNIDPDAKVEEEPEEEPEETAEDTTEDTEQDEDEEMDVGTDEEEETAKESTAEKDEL
T3 sequence (P14625 22-803 limits assumed): as the sequence (P14625 22-803) above
Sequence of human Grp94 on the cell surface (senescent IMR-90 human lung fibroblasts; IPF patient lung fibroblasts) (human) (P14625 22-803): as above

ADCC reporter-gene assay (Promega, mouse FcgRIV effector cells), activation of the reporter; target cells senescent IMR-90 [1] [fold] | mFcγRIV ADCC Reporter Bioassay (Promega), activation of the reporter gene; target cells senescent IMR-90 [1] [fold] | Human IF (score 1-9, 1 = best) [2] [score] | Meth A Binding (mean fluorescence intensity) [3] | Top 24 by Meth A (rank score, 1 = best binder) [4] [rank] | Mouse FACS ratio (senescent cells / proliferating cells) [5] [ratio] | Meth A Dilution 1:2 (mean fluorescence intensity) [6] | Kd [7] [nM] | Human FACS plot (score 1-9, 1 = best) [8] [score] | Human FACS ratio (senescent cells / proliferating cells) [9] [ratio] | Mouse FACS (score 1-9, 1 = best) [10] [score] | Binder
20 | 20 | – | – | – | – | – | – | – | – | – | optimized anti-Grp94 4C2 antibody (mouse IgG2a, Fc substitutions S239D and I332E, afucosylated) (antibody, part only; not given: mutant mouse IgG2a and light constant, V domains shown, not shown: another chain or arm of the molecule; a dimerising Fc or GST, The Fc substitutions S239D and I332E (paragraph 258 prints the second as 1332E; paragraph 22 has I332E) and the afucosylated Fc glycan lie in the constant region. The letters given do not carry them.) VH: EVQLVETGGGLVQPKGSLKLSCAASGFTFNTNAMNWVRQAPGKGLEWVARIRSKSNNYATYYADSVKDRFTISRDDSQSMLFLQMNNLKTEDTAMYYCVRDTLAWFAYWGQGTLVTVSA VL: QIVLTQSPAIMSASPGEKVTITCSASSSVSYMHWFQQKPDTSPKLWIYSTSNLASGVPARFSASGSGTSYSLTISRMEAEDAATYYCQQKTSYPPTFGAGTKLELK
– | – | 1 | 2690 RFU (mean fluorescence intensity) | 1 | 5 | 1990 RFU (mean fluorescence intensity) | 3.47 | 4 | 1 | – | anti-Grp94 monoclonal antibody clone 4C2 (antibody, V domains shown, Mouse hybridoma antibody; It was tested as hybridoma supernatant in the screens (ELISA, Meth A FACS, Biacore, binning); also called 4C2 clone hybridoma supernatant; monoclonal antibody 4C2) VH: EVQLVETGGGLVQPKGSLKLSCAASGFTFNTNAMNWVRQAPGKGLEWVARIRSKSNNYATYYADSVKDRFTISRDDSQSMLFLQMNNLKTEDTAMYYCVRDTLAWFAYWGQGTLVTVSA VL: QIVLTQSPAIMSASPGEKVTITCSASSSVSYMHWFQQKPDTSPKLWIYSTSNLASGVPARFSASGSGTSYSLTISRMEAEDAATYYCQQKTSYPPTFGAGTKLELK
– | – | 3 | 819 RFU (mean fluorescence intensity) | 12 | 6 | 746 RFU (mean fluorescence intensity) | 2.5 | 3 | 3 | – | anti-Grp94 monoclonal antibody clone 5B2 (antibody, mouse IgG2a, V domains shown, Mouse hybridoma antibody, tested as hybridoma supernatant) VH: EVQLVETGGGLVQPKGSLKLSCAASGFTFNTNAMNWVRQAPGKGLEWVARIRSKSNNYATYYADSVKDRFTISRDDSQNMFYLQMNNLKTEDTAMYYCVRDTATWFAYWGQGTLVTVSA VL: QIVLTQSPALMSASPGEKVTIACSASSSVSYMHWFQQKPGTSPKLWIYSTSNLASGVPARFSGSGSGTSYSLTISRMEAEDAATYYCQQKTSYPPTFGSGTKLEIK
– | – | 4 | 732 RFU (mean fluorescence intensity) | 18 | 7 | 688 RFU (mean fluorescence intensity) | – | 1 | 6 | 4 | anti-Grp94 monoclonal antibody clone 9A3 (antibody, mouse IgG2a, V domains shown, Mouse hybridoma antibody, tested as hybridoma supernatant) VH: EVKLVESGGGLVKPGGSLKLSCAASGFTFRTYAMSWVRQTPEKRLEWVATITTGGPTYYPDNVKGRFTISRDNDRNILDLQMNSLRSEDTATYYCLRGATTGDYWGQGTTLIVSS VL: DIVMTQSHKFMFTSVGDRVSITCKASHDVSTAVAWYQQKPGQYPKLLIYWASNRYTGVPDRFTGSGSGMDFTFTISSVQAEDLAVYYCQQHSSTPYTFGGGTRLEIK
